Consider 6 molecules from patent publication US20160194391A1 (AstraZeneca / MedImmune, published 2016).

“And” between values parts separate entries of the source, which are not always exact repeats. Identical values can stand only once.

For test [1], the target named is T1, human IL-6 (human, UniProt P05231 30-212). As to the kind of experiment: cell-based or functional assay.
For test [2], the target named is T1, human IL-6. As to the kind of experiment: cell-based or functional assay. The source holds these as a separate data set.
For test [3], the target named is T2, human dimeric IL-23 (eBiosciences 34-8239) (human, UniProt P29460 23-328; Q9NPF7 20-189).
T2 sequence (looked up) 1: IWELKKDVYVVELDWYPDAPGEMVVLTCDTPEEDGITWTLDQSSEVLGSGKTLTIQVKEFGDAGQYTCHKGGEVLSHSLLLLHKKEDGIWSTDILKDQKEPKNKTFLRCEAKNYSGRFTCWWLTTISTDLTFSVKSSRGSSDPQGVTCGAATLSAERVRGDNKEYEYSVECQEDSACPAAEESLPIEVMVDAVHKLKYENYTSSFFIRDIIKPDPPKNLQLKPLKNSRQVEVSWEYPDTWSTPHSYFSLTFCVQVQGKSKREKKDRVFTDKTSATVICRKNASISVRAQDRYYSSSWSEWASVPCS
T2 sequence (looked up) 2: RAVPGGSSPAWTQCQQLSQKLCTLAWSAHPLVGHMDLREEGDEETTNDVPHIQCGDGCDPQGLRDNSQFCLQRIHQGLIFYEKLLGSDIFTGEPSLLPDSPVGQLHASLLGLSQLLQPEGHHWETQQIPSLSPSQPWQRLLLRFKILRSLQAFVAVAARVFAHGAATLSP
As to the kind of experiment: cell-based or functional assay.

Test [4] concerns the target T3, monkey IL-12 (macaque) (macaque, UniProt P48091 23-219; P48095 23-328).
T3 sequence (looked up) 1: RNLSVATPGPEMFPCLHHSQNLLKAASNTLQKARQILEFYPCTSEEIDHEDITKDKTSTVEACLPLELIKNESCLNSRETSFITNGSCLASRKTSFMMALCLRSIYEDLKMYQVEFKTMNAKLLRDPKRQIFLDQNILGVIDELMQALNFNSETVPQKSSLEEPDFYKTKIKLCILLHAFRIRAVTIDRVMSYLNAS
T3 sequence (looked up) 2: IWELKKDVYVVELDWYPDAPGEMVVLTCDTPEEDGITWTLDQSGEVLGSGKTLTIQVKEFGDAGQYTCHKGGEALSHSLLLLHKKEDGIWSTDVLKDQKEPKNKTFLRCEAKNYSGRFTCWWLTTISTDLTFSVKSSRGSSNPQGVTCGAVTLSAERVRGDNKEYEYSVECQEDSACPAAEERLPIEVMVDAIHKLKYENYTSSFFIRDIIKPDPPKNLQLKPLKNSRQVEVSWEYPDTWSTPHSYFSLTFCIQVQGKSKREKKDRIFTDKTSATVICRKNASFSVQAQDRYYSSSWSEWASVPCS
As to the kind of experiment: cell-based or functional assay.

Test [5] deals with T2, human dimeric IL-23 (eBiosciences …). Kind of test: SPR, bispecific held on captured IL-6 (~240 RU), human dimeric IL-23 as analyte (3-25 nM). How it is done: SPR of bispecific scFvs were carried out as previously described for measuring the anti-IL-6 moiety; however, protocol modifications were required in order to determine the binding kinetics of the anti-IL-23 scFv, 31A12. Briefly, IL-23 binding by the bispecific was performed by first immobilizing the bispecific with IL-6 as described, but at a constant density (˜240 RU). Binding and dissociation of a recombinant human dimeric IL-23 (34-8239, eBiosciences, San Diego, Calif.) was assayed in concentrations ranging from 3 to 25 nM using the same parameters detailed above.
Background: Surface plasmon resonance follows binding to a sensor surface in real time, without labels.

In test [6] the target is T3, monkey IL-12 (macaque). Kind of test: cell-based or functional assay. The source holds these as a separate data set.
For test [7], the target named is T4, 3×FLAG-IL-6 (human).
T4 construct: it may hold the pre-pro-trypsin leader
As to the kind of experiment: SPR, 3×FLAG-IL-6 captured by anti-FLAG M2 on protein G, bispecific as analyte.

Test [8] deals with T4, 3×FLAG-IL-6. As to the kind of experiment: SPR, 3×FLAG-IL-6 captured by anti-FLAG M2 on protein G, scFv as analyte (1-100 nM).
The target in test [9] is T4, 3×FLAG-IL-6. Kind of test: SPR, 3×FLAG-IL-6 captured by anti-FLAG M2 on protein G, scFv as analyte.
For test [10], the target named is T1, human IL-6. As to the kind of experiment: cell-based or functional assay. The source holds these as a separate data set.
Test [11] concerns the target T1, human IL-6. Kind of test: cell-based or functional assay. This is another data set of the same source.
Test [12] addresses T4, 3×FLAG-IL-6. As to the kind of experiment: SPR, 3×FLAG-IL-6 captured by anti-FLAG M2 on protein G, scFv as analyte (1-100 nM). The method, then: Equilibrium constants for scFvs were determined as previously described; however, the protocol was modified so that an epitope tagged IL-6 was captured on the chip surface and the dissociation of anti-IL-6 scFvs from IL-6 was monitored. Briefly, anti-FLAG® M2 antibody (200472, Agilent Technologies, Santa Clara, Calif.) was bound to Protein G, and then 3×FLAG-IL-6 was captured by the anti-FLAG antibody. The anti-IL-6 scFvs were assayed over a range of concentrations between 1 and 100 nM.
Anti IL-6 scFvs, humanized using the one step method, retained IL-6 neutralization activity when expressed in mammalian cells, as shown for 13A8 (FIG. 11A and FIG. 11B), 28D2 and 9C8 v3-1 (FIG. 11C).
The source holds these as a separate data set.

T4 sequence (chain, as listed by the source limits assumed): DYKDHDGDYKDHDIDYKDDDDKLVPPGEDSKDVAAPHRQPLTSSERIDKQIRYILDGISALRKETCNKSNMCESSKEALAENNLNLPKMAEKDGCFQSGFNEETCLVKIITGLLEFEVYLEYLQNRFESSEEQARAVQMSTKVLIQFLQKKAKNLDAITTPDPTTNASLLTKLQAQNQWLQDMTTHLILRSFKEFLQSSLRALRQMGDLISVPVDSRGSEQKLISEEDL

B1: 13A8c-PEG20 (scFv)
scFv: DIQLTQSPSFLSASVGDRVTITCQASQSISNELSWYQQKPGKAPKLLIYRASTLTSGVPSRFSGSGSGTEFTLTISSLQPEDFATYYCQQGYNSNDVDNVFGGGTKVEIKGGGGSGGGGSGGGGSGGGGSEVQLVESGGGLVQPGGSLRLSCTVSGIDLSSYDLSWVRQAPGKGLEWVGYIYTDSSTWYANWAKGRFTISRDNSKNTLYLQLNSLRAEDTAVYYCARGSTDYAFDTRLDLWGQGTLVTVSS
modifications: C-terminal azidohomoalanine (Aha) conjugated to 20 kDa linear PEG bis-alkyne
Turning to B1, in test [1], the “EC50 (pg/mL) of the folded scFv-PEG” value turned out to be 93 pg/mL.

B2: 31A12c-PEG-13A8c bispecific (bispecific antibody)
scFv 1: DIQLTQSPSFLSASVGDRVTITCQASEDIESYLAWYQQKPGKAPKLLIYSASTLTSGVPSRFSGSGSGTEFTLTISSLQPEDFATYYCLGADDTTTVFGGGTKVEIKGGGGSGGGGSGGGGSGGGGSEVQLVESGGGLVQPGGSLRLSCTASGFSLSSYWLTWVRQAPGKGLEWVGTIATSSTYYASWAKGRFTISRDNSKNTLYLQLNSLRAEDTAVYYCARGLTTDYDLDLWGQGTLVTVSS
scFv 2: DIQLTQSPSFLSASVGDRVTITCQASQSISNELSWYQQKPGKAPKLLIYRASTLTSGVPSRFSGSGSGTEFTLTISSLQPEDFATYYCQQGYNSNDVDNVFGGGTKVEIKGGGGSGGGGSGGGGSGGGGSEVQLVESGGGLVQPGGSLRLSCTVSGIDLSSYDLSWVRQAPGKGLEWVGYIYTDSSTWYANWAKGRFTISRDNSKNTLYLQLNSLRAEDTAVYYCARGSTDYAFDTRLDLWGQGTLVTVSS
modifications: C-terminal azidohomoalanine (Aha) joined through a linear 20 kDa PEG to the Aha of the other scFv
notes: also called 31A12c-20KPEG-13A8c; 13A8c-PEG-31A12c
For orientation: Kd means the free concentration of one partner at which half of the binding sites on the other are occupied at equilibrium, for simple one-to-one binding. By koff is commonly meant a measure of how fast the partners let go of each other. The term kon denotes the rate constant with which the complex forms. As to B2, in test [2], the “Anti IL-6 EC50, batch A” value turned out to be 0.082 ng/mL; the “Anti IL-6 EC50, batch B” value amounted to 0.064 ng/mL; the “Anti IL-6 EC50, batch C” value turned out to be 0.136 ng/mL. In [3], the “Anti IL-23 EC50, batch A” value amounted to 2.94 ng/mL; the “Anti IL-23 EC50, batch B” value was 1.19 ng/mL; the “Anti IL-23 EC50, batch C” value worked out at 2.04 ng/mL. The “IC50 (read off the curve)” value in [4] is ~10 ng/mL and ~20 ng/mL. In test [5], this molecule yielded a Kd of 0.0918 nM, a koff of 7.11e-05 s⁻¹ and a kon of 773000 M⁻¹ s⁻¹. Moreover, the “IC50 (read off the curve) (interferon-gamma from NK92 cells, OD450)” value in test [6] is about 10 ng/mL. In addition, in [7], the Kd was 0.215 nM, the koff stood at 5.14e-05 s⁻¹ and the kon came out at 290000 M⁻¹ s⁻¹.

B3: 13A8n-PEG20 (scFv)
scFv: DIQLTQSPSFLSASVGDRVTITCQASQSISNELSWYQQKPGKAPKLLIYRASTLTSGVPSRFSGSGSGTEFTLTISSLQPEDFATYYCQQGYNSNDVDNVFGGGTKVEIKGGGGSGGGGSGGGGSGGGGSEVQLVESGGGLVQPGGSLRLSCTVSGIDLSSYDLSWVRQAPGKGLEWVGYIYTDSSTWYANWAKGRFTISRDNSKNTLYLQLNSLRAEDTAVYYCARGSTDYAFDTRLDLWGQGTLVTVSS
modifications: N-terminal azidohomoalanine (Aha) conjugated to 20 kDa linear PEG bis-alkyne
In the case of B3, the “EC50 (pg/mL) of the folded scFv-PEG” value in [1] turned out to be 1980 pg/mL.

B4: 13A8L-PEG20 (scFv)
scFv: DIQLTQSPSFLSASVGDRVTITCQASQSISNELSWYQQKPGKAPKLLIYRASTLTSGVPSRFSGSGSGTEFTLTISSLQPEDFATYYCQQGYNSNDVDNVFGGGTKVEIKGGGGSGGGGSGGGGSGGGGSEVQLVESGGGLVQPGGSLRLSCTVSGIDLSSYDLSWVRQAPGKGLEWVGYIYTDSSTWYANWAKGRFTISRDNSKNTLYLQLNSLRAEDTAVYYCARGSTDYAFDTRLDLWGQGTLVTVSS
modifications: azidohomoalanine (Aha) in the linker (13A8L) conjugated to 20 kDa linear PEG bis-alkyne
Consider B4, for which the “EC50 (pg/mL) of the folded scFv-PEG” value in [1] stood at 278 pg/mL.

B5: 28D2-C Aha (scFv)
scFv: MAHHHHHHPPPPAAADIQLTQSPSFLSASVGDRVTITCQASEDLFSSLAWYQQKPGKAPKLLIYSASTLASGVPSRFSGSGSGTDFTLTISSLQPEDFATYYCLGLYYYLTPDPIYGFGGGTKVEIKGGGGSGGGGSGGGGSGGGGSEVQLVESGGGLVQPGGSLRLSCTVSGLSLSKNAIAWVRQAPGKGLEWVGIIYAGGATTYASWAKGRFTISRDNSKNTLYLQLNSLRAEDTAVYYCAREYAGDSYYTGYTQLDLWGQGTLVTVSSGM
modifications: azidohomoalanine (Aha) in place of the single Met, at the C terminus
In test [8], B5 showed an equilibrium dissociation constant (Kd) of 0.052 nM, a koff of 7.6e-05 s⁻¹ and a kon of 1.45e+06 M⁻¹ s⁻¹. Further, in test [9], binding was characterised by a dissociation constant (Kd) of 0.0674 nM, the koff came to 7.1e-05 s⁻¹ and the kon was 1.05e+06 M⁻¹ s⁻¹.

B6: 13A8 humanized scFv (mammalian expressed) (scFv)
scFv: DIQLTQSPSFLSASVGDRVTITCQASQSISNELSWYQQKPGKAPKLLIYRASTLTSGVPSRFSGSGSGTEFTLTISSLQPEDFATYYCQQGYNSNDVDNVFGGGTKVEIKGGGGSGGGGSGGGGSGGGGSEVQLVESGGGLVQPGGSLRLSCTVSGIDLSSYDMSWVRQAPGKGLEWVGYIYTDSSTWYANWAKGRFTISRDNSKNTLYLQMNSLRAEDTAVYYCARGSTDYAFDTRLDLWGQGTLVTVSSGPPPPHHHHHH
notes: also called humanized scFv 13A8; mammalian 13A8 scFv
As for B6, the “EC50, inhibition of IL-6 induced B9 cell proliferation” value in test [10] came out at 0.064 ng/mL. Moreover, in test [11], the “EC50, neutralization of IL-6” value amounted to 0.059 ng/mL. In test [12], this molecule gave a Kd of 0.0982 nM, a koff of 8.64e-05 s⁻¹ and a kon of 876000 M⁻¹ s⁻¹.
